The results in this text go back to US20050239203, “Regulation of endogenous gene expression in cells using zinc finger proteins” (published 2005).

Series [1] has as its system SP-1 zinc finger domain (Homo sapiens). Kind of series: EMSA. The settings on record: MBP fusion, same conditions; target sequence not given. A general note: A gel shift assay detects complexes by their altered migration in electrophoresis.
The test system of the next series is Zif268 (Mus musculus). Description: EMSA. The settings on record: MBP fusion, same conditions; target sequence not given.
Series [2] concerns the target T1, VEGF3a/1 six-finger ZFP (synthetic).
T1 chain: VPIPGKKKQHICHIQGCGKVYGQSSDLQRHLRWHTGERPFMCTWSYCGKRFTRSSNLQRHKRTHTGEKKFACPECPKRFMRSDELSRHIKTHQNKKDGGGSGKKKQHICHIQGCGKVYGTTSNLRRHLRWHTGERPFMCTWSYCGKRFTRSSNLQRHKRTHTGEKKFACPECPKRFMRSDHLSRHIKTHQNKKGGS
Kind of series: EMSA; apparent Kd, 37 C; complex half-life more than 10x longer than VEGF1. The settings on record: tags: N-terminal MBP fusion; label: 5'-32P. The method, then: (§1) For the EMSA studies, 20 μl binding reactions contained 10 fmole (0.5 nM) 5′-³²P-labeled double-stranded target DNA, 35 mM Tris HCl (pH 7.8), 100 mM KCl, 1 mM MgCl₂, 5 mM dithiothreitol, 10% glycerol, 20 μg/ml poly dI-dC, 200 μg/ml bovine serum albumin, and 25 μM ZnCl₂. Protein was added as one fifth volume from a 3-fold dilution series. Binding was allowed to proceed for 60 min at either room temperature or 37° C. Polyacrylamide gel electrophoresis was carried out at room temperature or 37° C. using precast 10% or 10-20% Tris-HCl gels (BioRad) and standard Tris-Glycine runmning buffer. […] Thus, the 18-bp binding ZFP bound with high affinity to its target site. In a parallel experiment, VEGF1 protein was tested against its target using the oligonucleotides described in Example I, yielding an apparent Kd of approximately 2.5 nM.
The apparent Kd is a useful measure of the affinity of a protein for its DNA target. However, for a DNA binding site either in vitro or in vivo, its occupancy is determined to a large extent by the off-rate of the DNA-binding protein. The conditions for EMSA were as described above; binding and electrophoresis were performed at 37° C. […] Thus, under these in vitro conditions, the occupancy of the target site is much higher for the 18-bp binding protein than for the 9-bp binding protein.

Series [3] deals with T1, VEGF3a/1 six-finger ZFP. Kind of series: EMSA; apparent Kd, room temperature, 25 uM ZnCl2, poly dI-dC. The settings on record: tags: N-terminal MBP fusion; label: 5'-32P. The method, then: as §1
The next series deals with T2, VEGF1-KRAB (synthetic, UniProt P08047 SEQ:1-99).
T2 chain: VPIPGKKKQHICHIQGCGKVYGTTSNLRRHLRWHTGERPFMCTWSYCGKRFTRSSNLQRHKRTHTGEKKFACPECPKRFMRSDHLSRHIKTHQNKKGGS
Description: cell_activity; endogenous VEGF ELISA, DFX-treated 293 cells. The settings on record: tags: SV40 NLS, KRAB (KOX1), FLAG. How it is done:
Eighteen hours post transfection, the 293 cells were induced by treatment with 100 μM DFX (desferrioxamine), resulting in a rapid and lasting transcriptional activation of the VEGF gene and also in a gradual increase in VEGF mRNA stability (Ikeda et al., J. Biol. Chem. 270:19761-19766 (1995)). Under routine culture conditions, 293 cells secrete a low level of VEGF in the culture media. The cells were allowed to incubate an additional 24 hours before the supernatants were collected for determination of VEGF levels by an ELISA assay.
On the technique in general: In an ELISA, binding on a coated surface is turned into a signal by an enzyme label.

Regarding SP-1 target (sequence not stated), in series [1], the Kd was determined as 65 nM.

For Zif268 target (sequence not stated), in the series on Zif268 (Mus musculus), the Kd is 60 nM.

B1: JVF9/JVF10 VEGF 18-bp target (dsDNA)
DNA 1: AGCGAGCGGGGAGGATCGCGGAGGCTTGGGGCAGCCGGGTAG
DNA 2: CGCTCTACCCGGCTGCCCCAAGCCTCCGCGATCCTCCCCGCT
With B1, the Kd in the series with VEGF3a/1 six-finger ZFP [2] is about 9 nM; with VEGF3a/1 six-finger ZFP [3], about 1.5 nM.

B2: endogenous VEGF promoter target region (dsDNA)
DNA 1: AGCGGGGAGGATCGCGGAGGCTTGG
DNA 2: CCAAGCCTCCGCGATCCTCCCCGCT
In the series with VEGF1-KRAB, B2 returned an activity of 2 fold repression.
